± gives the standard deviation of the averaged measurements.
System: ATP
Assay: switch fluorescence ratio, 500 uM ATP over buffer (Cy3 cluster intensity, sum of 5 cycles each) (fold (ratio)); higher = stronger signal-on switching upon ATP binding; sequences stand for … in TCGTCGGCAGCGTCAGATGTGTATAAGAGACAGTTTTTTTTTTTTTTTTTTTTTTTTT…TC
Conditions: aptamer strand: ATP DNA aptamer (quencher-CACCTGGGGGAGTATTGCGGAGGAAGG + anchor), 100 nM annealed; ATP concentration: 500 uM
How it was run: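 After annealing to 100 nM quencher-labelled ATP aptamer, Cy3-labelled switching-strand clusters on a modified Illumina MiSeq flow-cell were imaged in selection buffer. A second image followed after 15 min with 500 uM ATP at 22 °C, and five such buffer/ATP cycles were done, each separated by NaOH stripping and re-annealing. The fluorescence ratio, averaged per switch-domain sequence, is summed target-cycle over summed buffer-cycle Cy3 intensity per cluster, with clusters outside 100-1000 RFU excluded.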
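Note: ATP exposure 15 min at 22 °C before imaging.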

TTTGGTTTGT and TTTGGTTTTG are within error of each other in switch fluorescence ratio: 1.1 ± 0.19 for the first, 0.995 ± 0.038 for the second.

First: TTTGTAAGCC
Second: TTTGTAAGTT
The switch fluorescence ratio of the first is higher: 1.06 ± 0.011 for the first, 0.995 ± 0.03 for the second.

TTTGTAATTG and TTTGTAATTT are the same in switch fluorescence ratio: 1.008 ± 0.01 for the first, 1.01 ± 0.021 for the second.

TTTGTAGACG and TTTGTAGATC are within error of each other in switch fluorescence ratio: 1.04 ± 0.062 for the first, 1.06 ± 0.066 for the second.

First: TTTGTAGGGT
Second: TTTGTATTGC
The switch fluorescence ratio of the first is lower: 0.971 ± 0.011 for the first, 1.01 ± 0.025 for the second.

TTTGTATTGT and TTTGTATTTA are within error of each other in switch fluorescence ratio: 1.019 ± 0.0089 for the first, 1.03 ± 0.041 for the second.

TTTGTCAGGC and TTTGTCATCG are within error of each other in switch fluorescence ratio: 1.02 ± 0.053 for the first, 1.03 ± 0.018 for the second.

TTTGTCCATG and TTTGTCCCTT are within error of each other in switch fluorescence ratio: 0.996 ± 0.055 for the first, 1.01 ± 0.041 for the second.

Going from TTTGTCCTTA to TTTGTGAGAA, the switch fluorescence ratio rises from 0.9932 ± 0.0017 to 1.02 ± 0.0045.

Going from TTTGTGAGGG to TTTGTGAGTT, the switch fluorescence ratio rises from 0.982 ± 0.028 to 1.017 ± 0.0042.

TTTGTGATGT and TTTGTGATTT are within error of each other in switch fluorescence ratio: 1.02 ± 0.066 for the first, 1.11 ± 0.27 for the second.

TTTGTGCTC and TTTGTGGCAG are within error of each other in switch fluorescence ratio: 1.13 ± 0.15 for the first, 0.991 ± 0.039 for the second.

TTTGTGGCGT and TTTGTGGCTT are within error of each other in switch fluorescence ratio: 0.984 ± 0.023 for the first, 1.38 ± 0.65 for the second.

TTTGTGTAAT and TTTGTGTCAA are within error of each other in switch fluorescence ratio: 0.989 ± 0.038 for the first, 1.01 ± 0.04 for the second.

TTTGTGTGTC and TTTGTGTTCA are within error of each other in switch fluorescence ratio: 1 ± 0.025 for the first, 0.98763 ± 0.00075 for the second.

TTTGTTACGT and TTTGTTAGAC are within error of each other in switch fluorescence ratio: 1.04 ± 0.024 for the first, 1.03 ± 0.022 for the second.

TTTGTTATGG and TTTGTTATGT are within error of each other in switch fluorescence ratio: 1.02 ± 0.063 for the first, 0.988 ± 0.019 for the second.

TTTGTTATTG and TTTGTTCCAG are within error of each other in switch fluorescence ratio: 1.3 ± 0.44 for the first, 1.01 ± 0.06 for the second.

TTTGTTCTTT and TTTGTTGCTG are within error of each other in switch fluorescence ratio: 1.02 ± 0.081 for the first, 1.03 ± 0.039 for the second.

TTTGTTGTAG and TTTGTTGTCT are within error of each other in switch fluorescence ratio: 0.985 ± 0.028 for the first, 0.995 ± 0.011 for the second.

TTTGTTTCTT and TTTGTTTGAA are within error of each other in switch fluorescence ratio: 0.977 ± 0.032 for the first, 0.962 ± 0.023 for the second.

TTTGTTTGAG and TTTGTTTGGC are within error of each other in switch fluorescence ratio: 0.991 ± 0.037 for the first, 0.983 ± 0.019 for the second.

TTTGTTTGTG and TTTTAAAATT are the same in switch fluorescence ratio: 1 ± 0.014 for the first, 1 ± 0.035 for the second.

First: TTTTAAACAT
Second: TTTTAAAGA
The switch fluorescence ratio of the first is higher: 1.11 ± 0.09 for the first, 0.982 ± 0.026 for the second.

TTTTAAAGTA and TTTTAAAGTG are within error of each other in switch fluorescence ratio: 1.01 ± 0.031 for the first, 0.993 ± 0.034 for the second.

Going from TTTTAAAGTT to TTTTAAATCT, the switch fluorescence ratio rises from 0.968 ± 0.018 to 1.03 ± 0.019.

TTTTAAATTT and TTTTAACGAA are the same in switch fluorescence ratio: 1.01 ± 0.11 for the first, 1.01 ± 0.013 for the second.

TTTTAACGGC and TTTTAAGAAG are within error of each other in switch fluorescence ratio: 0.971 ± 0.082 for the first, 1.02 ± 0.018 for the second.

TTTTAAGACG and TTTTAAGGCT are within error of each other in switch fluorescence ratio: 0.979 ± 0.069 for the first, 0.982 ± 0.024 for the second.

First: TTTTAAGGTG
Second: TTTTAATACT
The switch fluorescence ratio of the first is higher: 1.39 ± 0.055 for the first, 1.04 ± 0.066 for the second.

Going from TTTTAATAGC to TTTTAATGCG, the switch fluorescence ratio rises from 1 ± 0.028 to 1.04 ± 0.012.

TTTTAATGGA and TTTTAATGGG are within error of each other in switch fluorescence ratio: 1.03 ± 0.029 for the first, 0.999 ± 0.02 for the second.

TTTTAATGTC and TTTTAATTGA are within error of each other in switch fluorescence ratio: 0.984 ± 0.027 for the first, 1.02 ± 0.031 for the second.

TTTTAATTGT and TTTTACACTT are within error of each other in switch fluorescence ratio: 1.08 ± 0.083 for the first, 1.04 ± 0.017 for the second.

TTTTACGCT and TTTTACGCTG are within error of each other in switch fluorescence ratio: 1.03 ± 0.06 for the first, 1 ± 0.036 for the second.

TTTTACGGGT and TTTTACTAAA are within error of each other in switch fluorescence ratio: 1.02 ± 0.087 for the first, 1.06 ± 0.036 for the second.

TTTTAGACAG and TTTTAGACGT are within error of each other in switch fluorescence ratio: 1.01 ± 0.017 for the first, 0.991 ± 0.022 for the second.

TTTTAGAGAT and TTTTAGATTG are within error of each other in switch fluorescence ratio: 1.02 ± 0.038 for the first, 0.987 ± 0.028 for the second.

First: TTTTAGGACA
Second: TTTTAGGTAA
The switch fluorescence ratio of the first is higher: 0.99977 ± 0.00081 for the first, 0.9745 ± 0.0034 for the second.

TTTTAGGTGA and TTTTAGGTGG are within error of each other in switch fluorescence ratio: 1.07 ± 0.025 for the first, 0.98 ± 0.067 for the second.

Going from TTTTAGTAGC to TTTTAGTATT, the switch fluorescence ratio falls from 1.04 ± 0.0058 to 0.9973 ± 0.0091.

TTTTAGTTT and TTTTATAAAA are within error of each other in switch fluorescence ratio: 0.996 ± 0.023 for the first, 1.03 ± 0.019 for the second.

Sequence TTTTATACTT has a switch fluorescence ratio of 1 ± 0.011.

From the supplement of paper PMC10126150
